Source: PMC11196578

Biological target: MPXV E5_∆N (Mpox virus, UniProt A0A7H0DN89 323-785)
Assay: cryo-EM (2.67 A)
Conditions: protein: recombinant; tags: SUMO fusion; protease-treated (ULP or TEV); chain copies: 6

Chain of MPXV E5_∆N (A0A7H0DN89 323-785): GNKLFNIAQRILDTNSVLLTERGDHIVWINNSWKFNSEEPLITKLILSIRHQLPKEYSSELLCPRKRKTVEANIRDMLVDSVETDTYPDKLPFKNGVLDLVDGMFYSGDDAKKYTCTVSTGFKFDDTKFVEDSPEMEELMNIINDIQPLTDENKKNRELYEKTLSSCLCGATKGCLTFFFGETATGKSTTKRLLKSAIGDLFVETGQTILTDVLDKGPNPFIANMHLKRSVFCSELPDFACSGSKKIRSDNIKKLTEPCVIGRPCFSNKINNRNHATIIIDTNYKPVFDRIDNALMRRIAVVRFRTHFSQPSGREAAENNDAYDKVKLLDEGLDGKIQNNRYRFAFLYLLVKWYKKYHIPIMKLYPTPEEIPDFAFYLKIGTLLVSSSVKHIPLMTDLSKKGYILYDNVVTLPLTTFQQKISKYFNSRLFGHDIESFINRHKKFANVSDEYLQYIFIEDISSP

B1: Forked DNA (mixed)
DNA 1: AACGAGTCAAGCGCATCCCGTTTTTTTTTTTTTTT
DNA 2: TTTTTTTTTTTTTTTCGGGATGCGCTTGACTCGTT
B1: binds.
